# Experimental data published in patent US8530235B2, “Medium that supports culture of an oocyte and modulation of granulosa cell apoptosis” (Adelaide Research & Innovation Pty Ltd., priority 2005, dated 2013).
# B1: GDF-9: Recombinant mouse GDF-9 produced in-house in transfected 293H cells, partially purified by HIC (protein, UniProt Q07105 307-441, looked up)
# Growth/differentiation factor …: GQKAIRSEAKGPLLTASFNLSEYFKQFLFPQNECELHDFRLSFSQLKWDNWIVAPHRYNPRYCKGDCPRAVRHRYGSPVHTMVQNIIYEKLDPSVPRPSCVPGKYSPLSVLTIEPDGSIAYKEYEDMIATRCTCR
# B2: BMP-15: Recombinant ovine BMP-15 produced in-house in transfected 293H cells, partially purified by hydrophobic interaction chromatography; dosed as % v/v (protein, UniProt Q9MZE2 269-393, looked up)
# Bone morphogenetic protein 15: QAGSIASEVPGPSREHDGPESNQCSLHPFQVSFQQLGWDHWIIAPHLYTPNYCKGVCPRVLHYGLNSPNHAIIQNLVSELVDQNVPQPSCVPYKYVPISILLIEANGSILYKEYEGMIAQSCTCR
# Columns and labels:
# [1] = system: cumulus expansion of oocytectomised (OOX) complexes; assay: FSH-induced cumulus expansion score of OOX complexes; type: cell-based, mice; settings: score 0 (no expansion) to +4 (maximum expansion); mean ±SEM; OOX complexes with FSH
# Procedure: Members of the TGF-β superfamily are prime candidates for the mouse cumulus expansion-enabling factor (CEEF). This study was conducted to examine TGF-β superfamily processes regulating cumulus expansion. COCs were collected from eGG-primed mice and the oocyte microsurgically removed to generate oocytectomised (OOX) complexes. […] The type-I receptors for GDF9 and […] are ALK5 and ALK4, respectively. We tested the ability of an ALK4/5/7 kinase inhibitor to neutralize cumulus expansion.
# mural granulosa cells = assay: Mural granulosa cell DNA synthesis, 3H-thymidine incorporation; type: cell-based, marmoset monkey, Callithrix jacchus; settings: peri antral, small antral and large antral follicles; most notably small follicles, synergism with IGF1
# Procedure: Mural GC from large antral follicles were cultured for 24h and thymidine incorporation was stimulated with 175 ng/ml GDF9. […] Bars/points represent means+/−SEM from 3 replicate experiments expressed as a fold change relative to control.
# Follicles were manually excised and separated into 3 size classes: periantral (PA; 0.42-0.66 mm), small antral (SA; 0.66-1.5 mm) and large antral (LA; >1.5 mm). GCs from each follicle size were collected and pooled, then washed twice in bicarbonate-buffered tissue culture medium-199 (B-TCM) supplemented with 0.3 mg/ml of polyvinyl alcohol (PVA, Sigma). Depending on the individual experiments, mural GCs (1×10^5 cells/ml), hormones, inhibitors and media were added to wells of 96-well plates (Falcon) to give a final volume of 125 μl. Within each experiment, all treatments were carried out in at least duplicate wells and each experiment was replicated on at least 3 occasions. Cells were cultured in an atmosphere of 37° C., 96% humidity in 5% CO2 in air for 18 hours, followed by a further 6 hour pulse of 15.4 kBq tritiated thymidine (3H-thymidine, ICN) under the same conditions.
# Seven adult female marmosets were primed with […] for 6 days, whole ovaries were removed on day 7, follicles manually excised, and GC were then collected from 3 size classes: periantral (PA; 0.42-0.66 mm), small antral (SA; 0.66-1.5 mm) and large antral (LA; >1.5 mm). Four different approaches were utilized to examine GDF9 function in GC. […] To examine the GDF9 signalling pathway, cultured GC from LA follicles were transfected with either a CAGA-luciferase or BRE-luciferase reporter construct and treated with various TGF-β superfamily growth factors or co-cultured with mouse oocytes. In order to determine the effects of GDF9 on marmoset GC proliferation, we employed a GC bioassay whereby after 24 h ^3H-thymidine incorporation is assessed as an indicator of DNA synthesis and cellular proliferation. […] In another experiment, GC were treated with an increasing dose of SB431542, an activin-like kinase (ALK) 4/5/7 inhibitor, in the presence of GDF9+/−IGF1.
# cumulus-oocyte complexes = assay: Study V: oocyte IVM with GDF9, cumulus expansion and embryo development; type: cell-based, mice; settings: 200 ng/ml GDF9 with FSH/EGF
# Procedure: (§1) Oocytes (n=1106) were then fertilised and cultured to the blastocyst stage in G1.2/G2.2 medium at 37° C. in 6% CO2 5% O2. Blastocysts were pooled and either transferred to pseudo-pregnant Swiss females or differentially stained. Pregnancy outcome was assessed on Day 15 of pregnancy.
# [2] = Study V: pregnancy outcome after transfer of blastocysts to pseudo-pregnant females; type: in vivo, mice; settings: oocytes matured with 200 ng/ml GDF9, Day 15 of pregnancy
# Procedure: as §1
# cumulus cells = assay: Staurosporine-induced cumulus cell apoptosis in OOX (TUNEL); type: cell-based, Bovine; settings: 10% BMP-15 or 10 ng/ml BMP-6
# Procedure: CC apoptoic DNA was detected using TUNEl (Roche Diagnostic, Penzberg, Germany) according to the manufacturer's instructions. […] Complexes were then permeabilized in 0.11/u Triton X-100 in 0.1% sodium citrate for 1 hour at room temperature and washed 3 times in PBS/BSA. The complexes were then incubated in fluorescein-conjugated dUTP and terminal deoxynucleotide transferase (TUNEl reagents, Roche) for 1 hour at 37° C. in the dark. Positive controls were incubated in DNAse 1 (0.005 U/µl), which cleaves all DNA, for 20 minutes at room temperature and washed twice in PBS/BSA before TUNEl. Negative controls were incubated in fluorescein-dUTP in the absence of TdT. After TUNEl, complexes were washed twice in PBS/BSA and counterstained with propidium iodide 0.5 μg/ml (PI) plus RNase A (0.1 mg/ml) for 1 hour at room temperature in the dark to label all nuclei. Complexes were then washed twice in PBS/BSA and mounted with slight coverslip compression in VectaShield anti-bleaching solution (Vector labs, Burlingame, Calif.), and stored in the dark at 4° C. for confocal analysis. […] These optical section images were acquired and saved as independent colour channels (green, apoptotic cumulus fluorescence and red, nuclear cumulus fluorescence). The captured images were then processed in Scanalytics IPlab software Version 3.6. (Scanalytics, Fairfax, Va.). Quantification of CC number (for each colour channel) was independently measured using a macro script utilizing an auto segmentation filter for each optical section percentile (3 optical “z”-plane sections for each complex). A percentage of apoptotic nuclei were generated for each slice and the three percentile values were then averaged to achieve a representation of the total apoptotic nuclei percentage for the whole complex. These processes were repeated separately on each individual complex. A preliminary experiment was conducted to determine the apoptotic effect of staurosporine on bovine CC, which induced apoptosis in a dose-dependent manner (range; 0.1-100 μM, data not shown). The aim of this experiment was to determine whether OSF could prevent CC from undergoing apoptosis induced by staurosporine. OOX alone or co-cultured with 35 DO, 10 ng/ml BMP-6 or 10% (v/v) BMP-15, and were then exposed to either 0.1 μM or 1.0 μM staurospourine for the last 6 hours of the 24 hour incubation period. Three replicates of this experiment were carried out using 10 OOX per treatment group per replicate experiment.
Molecule,cumulus expansion score [1],GC DNA synthesis (mural granulosa cells),"fertilisation, rate of development or blastocyst percentages (cumulus-oocyte complexes)",blastocyst total cell number (cumulus-oocyte complexes; P=0.05),cumulus expansion index (cumulus-oocyte complexes; vs 2.4±0.1),"blastocyst percentages (cumulus-oocyte complexes; vs 75%, no significant effect) [%]","fetal development ([2]; vs 21%, P=0.04) [%]","implantation ([2]; vs 77%, not affected) [%]",CC apoptosis of treated OOX exposed to staurosporine (cumulus cells; 0.1 μM staurosporine) [%],CC apoptosis of treated OOX exposed to staurosporine (cumulus cells; 1 μM staurosporine) [%]
B1,3.7±0.1,stimulates GC DNA synthesis in all follicle sizes,no significant effect,significantly increased,3.1±0.1,83,39,83,–,–
B2,–,–,–,–,–,–,–,–,17,25
